Laboratory results from paper PMC3426363 (Pharmaceutical research, 2011).

Columns and labels:
Format in all cases: in vitro ADME, human
[1] = system: UGT1A isoforms; details: across the UGT1A isoforms used (Tab.S1)
[2] = substrate: O=c1c(O)c(-c2ccccc2)oc2cc(O)ccc12; test: UGT1A7 glucuronidation kinetics of flavonols; details: other: UGT1A7, pH 6.5
[3] = substrate: O=c1c(O)c(-c2ccccc2)oc2cc(O)cc(O)c12; test: UGT1A7 glucuronidation kinetics of flavonols; details: other: UGT1A7, pH 6.5
[4] = substrate: O=c1c(O)c(-c2ccc(O)cc2)oc2cc(O)cc(O)c12; test: UGT1A7 glucuronidation kinetics of flavonols; details: other: UGT1A7, pH 6.5
[5] = substrate: O=c1c(O)c(-c2ccccc2)oc2cc(O)ccc12; test: UGT1A8 glucuronidation kinetics of flavonols; details: other: UGT1A8, pH 6.5
[6] = substrate: O=c1c(O)c(-c2ccccc2)oc2cc(O)cc(O)c12; test: UGT1A8 glucuronidation kinetics of flavonols; details: other: UGT1A8, pH 6.5
[7] = substrate: O=c1c(O)c(-c2ccc(O)cc2)oc2cc(O)cc(O)c12; test: UGT1A8 glucuronidation kinetics of flavonols; details: other: UGT1A8, pH 6.5
[8] = substrate: O=c1c(O)c(-c2ccc(O)cc2)oc2cc(O)ccc12; test: UGT1A9 glucuronidation kinetics of flavonols; details: other: UGT1A9, pH 6.5
[9] = substrate: O=c1c(O)c(-c2ccccc2)oc2cc(O)ccc12; test: UGT1A9 glucuronidation kinetics of flavonols; details: other: UGT1A9, pH 6.5
[10] = substrate: O=c1c(O)c(-c2ccc(O)cc2)oc2cc(O)cc(O)c12; test: UGT1A9 glucuronidation kinetics of flavonols; details: other: UGT1A9, pH 6.5
[11] = substrate: O=c1c(O)c(-c2ccccc2)oc2cc(O)ccc12; test: UGT1A10 glucuronidation kinetics of flavonols; details: other: UGT1A10, pH 6.5
[12] = substrate: O=c1c(O)c(-c2ccccc2)oc2cc(O)cc(O)c12; test: UGT1A10 glucuronidation kinetics of flavonols; details: other: UGT1A10, pH 6.5
[13] = substrate: O=c1c(O)c(-c2ccc(O)cc2)oc2cc(O)cc(O)c12; test: UGT1A10 glucuronidation kinetics of flavonols; details: other: UGT1A10, pH 6.5

Molecule: COc1ccc2c(=O)cc(-c3ccc(O)cc3)oc2c1 [4’H7MF, 4'-hydroxy-7-methoxyflavone]
- glucuronidation rate [1]: ≤ 0.9 nmol/mg/min

Molecule: COc1cccc2oc(-c3ccc(O)cc3)cc(=O)c12 [4’H5MF, 4'-hydroxy-5-methoxyflavone]
- glucuronidation rate [1]: ≤ 0.9 nmol/mg/min

Molecule: O=c1cc(-c2ccc(O)cc2)oc2cccc(O)c12 [5,4’DHF, 5,4'-dihydroxyflavone]
- glucuronidation rate [1]: ≤ 0.9 nmol/mg/min

Molecule: COc1cc(O)c2c(=O)cc(-c3ccc(O)cc3)oc2c1 [5,4’DH7MF, 5,4'-dihydroxy-7-methoxyflavone]
- glucuronidation rate [1]: ≤ 0.9 nmol/mg/min

Molecule: O=c1cc(-c2ccccc2)oc2cccc(O)c12 [5HF, 5-hydroxyflavone]
- glucuronidation rate [1]: ≤ 0.9 nmol/mg/min

Molecule: O=c1cc(-c2ccc(O)cc2)oc2ccccc12 [4’HF, 4'-hydroxyflavone]
- glucuronidation rate [1]: ≤ 0.9 nmol/mg/min

Molecule: COc1ccc2oc(-c3ccc(O)cc3)cc(=O)c2c1 [4’H6MF, 4'-hydroxy-6-methoxyflavone]
- glucuronidation rate [1]: ≤ 0.9 nmol/mg/min

Molecule: COc1cc(O)c2c(=O)cc(-c3ccccc3)oc2c1 [5H7MF, 5-hydroxy-7-methoxyflavone]
- glucuronidation rate [1]: ≤ 0.9 nmol/mg/min

B1: UGT1A7 (Homo sapiens) (protein)
chain: GKLLVVPMDGSHWFTMQSVVEKLILRGHEVVVVMPEVSWQLGRSLNCTVKTYSTSYTLEDQDREFMVFADARWTAPLRSAFSLLTSSSNGIFDLFFSNCRSLFNDRKLVEYLKESCFDAVFLDPFDACGLIVAKYFSLPSVVFARGIFCHYLEEGAQCPAPLSYVPRLLLGFSDAMTFKERVWNHIMHLEEHLFCPYFFKNVLEIASEILQTPVTAYDLYSHTSIWLLRTDFVLEYPKPVMPNMIFIGGINCHQGKPVPMEFEAYINASGEHGIVVFSLGSMVSEIPEKKAMAIADALGKIPQTVLWRYTGTRPSNLANNTILVKWLPQNDLLGHPMTRAFITHAGSHGVYESICNGVPMVMMPLFGDQMDNAKRMETKGAGVTLNVLEMTSEDLENALKAVINDKSYKENIMRLSSLHKDRPVEPLDLAVFWVEFVMRHKGAPHLRPAAHDLTWYQYHSLDVIGFLLAVVLTVAFITFKCCAYGYRKCLGKKGRVKKAHKSKTH
- Km ([2]; formation of 3-O-glucuronide): 1.61 ± 0.14 µM
- Vmax ([2]; formation of 3-O-glucuronide): 2.04 ± 0.07 nmol/mg/min
- Vmax/Km ([2]; formation of 3-O-glucuronide): 1270 µL/min/mg
- Km ([2]; formation of 7-O-glucuronide): 23.17 ± 6.96 µM
- Vmax ([2]; formation of 7-O-glucuronide): 0.44 ± 0.07 nmol/mg/min
- Vmax/Km ([2]; formation of 7-O-glucuronide): 20 µL/min/mg
- Km ([3]; formation of 3-O-glucuronide): 0.82 ± 0.08 µM
- Vmax ([3]; formation of 3-O-glucuronide): 3.35 ± 0.11 nmol/mg/min
- Km ([3]; formation of 7-O-glucuronide): 21.43 ± 6.09 µM
- Vmax ([3]; formation of 7-O-glucuronide): 2.46 ± 0.34 nmol/mg/min
- Vmax/Km ([3]; formation of 7-O-glucuronide): 110 µL/min/mg
- Km ([4]; formation of 3-O-glucuronide): 1.46 ± 0.32 µM
- Vmax ([4]; formation of 3-O-glucuronide): 0.77 ± 0.04 nmol/mg/min
- Vmax/Km ([4]; formation of 3-O-glucuronide): 530 µL/min/mg
- Km ([4]; formation of 7-O-glucuronide): 11.56 ± 2.91 µM
- Vmax ([4]; formation of 7-O-glucuronide): 1.10 ± 0.11 nmol/mg/min
- Vmax/Km ([4]; formation of 7-O-glucuronide): 100 µL/min/mg

B2: UGT1A8 (Homo sapiens) (protein)
chain: GKLLVVPMDGSHWFTMQSVVEKLILRGHEVVVVMPEVSWQLGKSLNCTVKTYSTSYTLEDLDREFMDFADAQWKAQVRSLFSLFLSSSNGFFNLFFSHCRSLFNDRKLVEYLKESSFDAVFLDPFDACGLIVAKYFSLPSVVFARGIACHYLEEGAQCPAPLSYVPRILLGFSDAMTFKERVRNHIMHLEEHLFCQYFSKNALEIASEILQTPVTAYDLYSHTSIWLLRTDFVLDYPKPVMPNMIFIGGINCHQGKPLPMEFEAYINASGEHGIVVFSLGSMVSEIPEKKAMAIADALGKIPQTVLWRYTGTRPSNLANNTILVKWLPQNDLLGHPMTRAFITHAGSHGVYESICNGVPMVMMPLFGDQMDNAKRMETKGAGVTLNVLEMTSEDLENALKAVINDKSYKENIMRLSSLHKDRPVEPLDLAVFWVEFVMRHKGAPHLRPAAHDLTWYQYHSLDVIGFLLAVVLTVAFITFKCCAYGYRKCLGKKGRVKKAHKSKTH
- Km ([5]; formation of 3-O-glucuronide): 8.68 ± 1.21 µM
- Vmax ([5]; formation of 3-O-glucuronide): 0.76 ± 0.04 nmol/mg/min
- Vmax/Km ([5]; formation of 3-O-glucuronide): 90 µL/min/mg
- Km ([5]; formation of 7-O-glucuronide): 27.32 ± 7.50 µM
- Vmax ([5]; formation of 7-O-glucuronide): 0.65 ± 0.10 nmol/mg/min
- Vmax/Km ([5]; formation of 7-O-glucuronide): 20 µL/min/mg
- Km ([6]; formation of 3-O-glucuronide): 6.44 ± 1.28 µM
- Vmax ([6]; formation of 3-O-glucuronide): 3.89 ± 0.47 nmol/mg/min
- Vmax/Km ([6]; formation of 3-O-glucuronide): 600 µL/min/mg
- Km ([6]; formation of 7-O-glucuronide): 4.88 ± 1.14 µM
- Vmax ([6]; formation of 7-O-glucuronide): 0.79 ± 0.57 nmol/mg/min
- Vmax/Km ([6]; formation of 7-O-glucuronide): 160 µL/min/mg
- Km ([7]; formation of 3-O-glucuronide): 2.39 ± 0.47 µM
- Vmax ([7]; formation of 3-O-glucuronide): 0.74 ± 0.04 nmol/mg/min
- Vmax/Km ([7]; formation of 3-O-glucuronide): 310 µL/min/mg
- Km ([7]; formation of 7-O-glucuronide): 6.77 ± 1.78 µM
- Vmax ([7]; formation of 7-O-glucuronide): 1.01 ± 0.09 nmol/mg/min
- Vmax/Km ([7]; formation of 7-O-glucuronide): 150 µL/min/mg

B3: UGT1A9 (Homo sapiens) (protein)
chain: GKLLVVPMDGSHWFTMRSVVEKLILRGHEVVVVMPEVSWQLGRSLNCTVKTYSTSYTLEDLDREFKAFAHAQWKAQVRSIYSLLMGSYNDIFDLFFSNCRSLFKDKKLVEYLKESSFDAVFLDPFDNCGLIVAKYFSLPSVVFARGILCHYLEEGAQCPAPLSYVPRILLGFSDAMTFKERVRNHIMHLEEHLLCHRFFKNALEIASEILQTPVTEYDLYSHTSIWLLRTDFVLDYPKPVMPNMIFIGGINCHQGKPLPMEFEAYINASGEHGIVVFSLGSMVSEIPEKKAMAIADALGKIPQTVLWRYTGTRPSNLANNTILVKWLPQNDLLGHPMTRAFITHAGSHGVYESICNGVPMVMMPLFGDQMDNAKRMETKGAGVTLNVLEMTSEDLENALKAVINDKSYKENIMRLSSLHKDRPVEPLDLAVFWVEFVMRHKGAPHLRPAAHDLTWYQYHSLDVIGFLLAVVLTVAFITFKCCAYGYRKCLGKKGRVKKAHKSKTH
- Km ([8]; formation of 3-O-glucuronide): 0.36 ± 0.03 µM
- Vmax ([8]; formation of 3-O-glucuronide): 2.62 ± 0.05 nmol/mg/min
- Vmax/Km ([8]; formation of 3-O-glucuronide): 7280 µL/min/mg
- Km ([8]; formation of 7-O-glucuronide): 2.67 ± 0.56 µM
- Vmax ([8]; formation of 7-O-glucuronide): 1.15 ± 0.08 nmol/mg/min
- Vmax/Km ([8]; formation of 7-O-glucuronide): 430 µL/min/mg
- Km ([9]; formation of 3-O-glucuronide): 0.22 ± 0.04 µM
- Vmax ([9]; formation of 3-O-glucuronide): 4.60 ± 0.28 nmol/mg/min
- Vmax/Km ([9]; formation of 3-O-glucuronide): 20910 µL/min/mg
- Km ([9]; formation of 7-O-glucuronide): 1.50 ± 0.26 µM
- Vmax ([9]; formation of 7-O-glucuronide): 2.04 ± 0.09 nmol/mg/min
- Vmax/Km ([9]; formation of 7-O-glucuronide): 1360 µL/min/mg
- Km ([10]; formation of 3-O-glucuronide): 0.32 ± 0.03 µM
- Vmax ([10]; formation of 3-O-glucuronide): 1.92 ± 0.03 nmol/mg/min
- Vmax/Km ([10]; formation of 3-O-glucuronide): 6000 µL/min/mg
- Km ([10]; formation of 7-O-glucuronide): 3.87 ± 0.59 µM
- Vmax ([10]; formation of 7-O-glucuronide): 0.87 ± 0.05 nmol/mg/min
- Vmax/Km ([10]; formation of 7-O-glucuronide): 220 µL/min/mg

B4: UGT1A10 (Homo sapiens) (protein)
chain: GKLLVVPMDGSHWFTMQSVVEKLILRGHEVVVVMPEVSWQLERSLNCTVKTYSTSYTLEDQNREFMVFAHAQWKAQAQSIFSLLMSSSSGFLDLFFSHCRSLFNDRKLVEYLKESSFDAVFLDPFDTCGLIVAKYFSLPSVVFTRGIFCHHLEEGAQCPAPLSYVPNDLLGFSDAMTFKERVWNHIVHLEDHLFCQYLFRNALEIASEILQTPVTAYDLYSHTSIWLLRTDFVLDYPKPVMPNMIFIGGINCHQGKPLPMEFEAYINASGEHGIVVFSLGSMVSEIPEKKAMAIADALGKIPQTVLWRYTGTRPSNLANNTILVKWLPQNDLLGHPMTRAFITHAGSHGVYESICNGVPMVMMPLFGDQMDNAKRMETKGAGVTLNVLEMTSEDLENALKAVINDKSYKENIMRLSSLHKDRPVEPLDLAVFWVEFVMRHKGAPHLRPAAHDLTWYQYHSLDVIGFLLAVVLTVAFITFKCCAYGYRKCLGKKGRVKKAHKSKTH
- Km ([11]; formation of 3-O-glucuronide): 6.66 ± 0.66 µM
- Vmax ([11]; formation of 3-O-glucuronide): 0.19 ± 0.01 nmol/mg/min
- Vmax/Km ([11]; formation of 3-O-glucuronide): 30 µL/min/mg
- Km ([11]; formation of 7-O-glucuronide): 8.74 ± 1.37 µM
- Vmax ([11]; formation of 7-O-glucuronide): 0.26 ± 0.02 nmol/mg/min
- Vmax/Km ([11]; formation of 7-O-glucuronide): 30 µL/min/mg
- Km ([12]; formation of 3-O-glucuronide): 4.49 ± 0.61 µM
- Vmax ([12]; formation of 3-O-glucuronide): 2.01 ± 0.14 nmol/mg/min
- Vmax/Km ([12]; formation of 3-O-glucuronide): 450 µL/min/mg
- Km ([12]; formation of 7-O-glucuronide): 3.96 ± 0.58 µM
- Vmax ([12]; formation of 7-O-glucuronide): 0.77 ± 0.04 nmol/mg/min
- Vmax/Km ([12]; formation of 7-O-glucuronide): 190 µL/min/mg
- Km ([13]; formation of 3-O-glucuronide): 2.44 ± 0.55 µM
- Vmax ([13]; formation of 3-O-glucuronide): 1.46 ± 0.16 nmol/mg/min
- Vmax/Km ([13]; formation of 3-O-glucuronide): 600 µL/min/mg
- Km ([13]; formation of 7-O-glucuronide): 3.34 ± 1.21 µM
- Vmax ([13]; formation of 7-O-glucuronide): 1.10 ± 0.20 nmol/mg/min
- Vmax/Km ([13]; formation of 7-O-glucuronide): 330 µL/min/mg
